According to article doi:10.1101/2025.08.13.669063:

Columns and labels:
[1] = biological target: cobalamin binding domains of Thermus thermophilus CarH (TtCBD) (Thermus thermophilus); assay: crystal structure
[2] = biological target: cobalamin binding domains of Thermus thermophilus CarH (TtCBD) (Thermus thermophilus); assay: time-resolved X-ray solution scattering

stoichiometry N [1]: 4
stoichiometry N [2]: 4
time constant of tetramer dissociation after photoexcitation [2]: 620 ms
Substance: cobalamin binding domains of Thermus thermophilus CarH (TtCBD) (domain or fragment)
